The supplement of paper PMC10567573

B1: FAM189A2 (parent)
chain: NLAGFILGCQGAQFVSSVPRCDLV

Variants of: B1
Assay: protein stability index of a GFP-peptide fusion (GPS, HEK-293T) (PSI 1-6); higher = more stable
Details: c terminus: a fixed tail appended
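Also: lentivirally expressed fusions sorted by FACS into six bins by GFP to DsRed ratio, PSI derived from sequencing read proportions per bin multiplied by bin number.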

Variant	protein stability index
NLEGFILGCQGAQFVSSVPRCDLV [A3E]	2.11
NLSGFILGCQGAQFVSSVPRCDLV [A3S]	1.12
NLPGFILGCQGAQFVSSVPRCDLV [A3P]	1.45
NLFGFILGCQGAQFVSSVPRCDLV [A3F]	2.77
NLHGFILGCQGAQFVSSVPRCDLV [A3H]	2
NLKGFILGCQGAQFVSSVPRCDLV [A3K]	2.35
NLRGFILGCQGAQFVSSVPRCDLV [A3R]	1.72
NLYGFILGCQGAQFVSSVPRCDLV [A3Y]	3.97
NLTGFILGCQGAQFVSSVPRCDLV [A3T]	3.18
NLWGFILGCQGAQFVSSVPRCDLV [A3W]	3.4
NLMGFILGCQGAQFVSSVPRCDLV [A3M]	3.4
NLDGFILGCQGAQFVSSVPRCDLV [A3D]	1.84
NLNGFILGCQGAQFVSSVPRCDLV [A3N]	4.16
NLQGFILGCQGAQFVSSVPRCDLV [A3Q]	1.03
NLAGFILGCQGPQFVSSVPRCDLV [A12P]	2.99
NLAGFILGCQGEQFVSSVPRCDLV [A12E]	3.98
NLAGFILGCQGFQFVSSVPRCDLV [A12F]	2.91
NLAGFILGCQGDQFVSSVPRCDLV [A12D]	4.07
NLAGFILGCQGHQFVSSVPRCDLV [A12H]	1.03
NLAGFILGCQGRQFVSSVPRCDLV [A12R]	3.12
NLAGFILGCQGLQFVSSVPRCDLV [A12L]	2.95
NLAGFILGCQGKQFVSSVPRCDLV [A12K]	1.89
NLAGFILGCQGCQFVSSVPRCDLV [A12C]	2.54
NLAGFILGCQGWQFVSSVPRCDLV [A12W]	2.15

Variant	protein stability index
NHAGFILGCQGAQFVSSVPRCDLV [L2H]	1.7
NTAGFILGCQGAQFVSSVPRCDLV [L2T]	1.76
NEAGFILGCQGAQFVSSVPRCDLV [L2E]	2.13
NRAGFILGCQGAQFVSSVPRCDLV [L2R]	1.87
NDAGFILGCQGAQFVSSVPRCDLV [L2D]	3.18
NKAGFILGCQGAQFVSSVPRCDLV [L2K]	2.67
NGAGFILGCQGAQFVSSVPRCDLV [L2G]	1.23
NCAGFILGCQGAQFVSSVPRCDLV [L2C]	1.31
NNAGFILGCQGAQFVSSVPRCDLV [L2N]	1.97
NIAGFILGCQGAQFVSSVPRCDLV [L2I]	3.93
NYAGFILGCQGAQFVSSVPRCDLV [L2Y]	2.72
NSAGFILGCQGAQFVSSVPRCDLV [L2S]	1.55
NPAGFILGCQGAQFVSSVPRCDLV [L2P]	1.26
NWAGFILGCQGAQFVSSVPRCDLV [L2W]	1.35
NFAGFILGCQGAQFVSSVPRCDLV [L2F]	2.65
NQAGFILGCQGAQFVSSVPRCDLV [L2Q]	3.01
NLAGFILGCQGAQFVYSVPRCDLV [S16Y]	4.96
NLAGFILGCQGAQFVNSVPRCDLV [S16N]	1.72
NLAGFILGCQGAQFVGSVPRCDLV [S16G]	3.41
NLAGFILGCQGAQFVESVPRCDLV [S16E]	2.21
NLAGFILGCQGAQFVCSVPRCDLV [S16C]	2.58
NLAGFILGCQGAQFVISVPRCDLV [S16I]	3.41
NLAGFILGCQGAQFVTSVPRCDLV [S16T]	2.23
NLAGFILGCQGAQFVDSVPRCDLV [S16D]	1.04

Variant	protein stability index
NLAGFILGCQGAQFVLSVPRCDLV [S16L]	2.34
NLAGFILGCQGAQFVHSVPRCDLV [S16H]	1.8
NLAGFILGCQGAQFVWSVPRCDLV [S16W]	3.86
NLAGFILGCQGAQFVKSVPRCDLV [S16K]	3.56
NLAGFILGCQGAQFVRSVPRCDLV [S16R]	2.89
NLAGFICGCQGAQFVSSVPRCDLV [L7C]	2.6
NLAGFIRGCQGAQFVSSVPRCDLV [L7R]	1.63
NLAGFIFGCQGAQFVSSVPRCDLV [L7F]	2.51
NLAGFISGCQGAQFVSSVPRCDLV [L7S]	2.02
NLAGFIMGCQGAQFVSSVPRCDLV [L7M]	2
NLAGFIKGCQGAQFVSSVPRCDLV [L7K]	1.69
NLAGFIPGCQGAQFVSSVPRCDLV [L7P]	1.43
NLAGFIHGCQGAQFVSSVPRCDLV [L7H]	1.73
NLAGFITGCQGAQFVSSVPRCDLV [L7T]	2.58
NLAGFIEGCQGAQFVSSVPRCDLV [L7E]	1.77
NLAGFIGGCQGAQFVSSVPRCDLV [L7G]	1.82
NLAGFIDGCQGAQFVSSVPRCDLV [L7D]	2.19
NLAGFIQGCQGAQFVSSVPRCDLV [L7Q]	2.1
NLAGFINGCQGAQFVSSVPRCDLV [L7N]	2.75
YLAGFILGCQGAQFVSSVPRCDLV [N1Y]	3.31
WLAGFILGCQGAQFVSSVPRCDLV [N1W]	3.42
HLAGFILGCQGAQFVSSVPRCDLV [N1H]	2.03
PLAGFILGCQGAQFVSSVPRCDLV [N1P]	2.63
LLAGFILGCQGAQFVSSVPRCDLV [N1L]	2.75

Variant	protein stability index
GLAGFILGCQGAQFVSSVPRCDLV [N1G]	1.51
QLAGFILGCQGAQFVSSVPRCDLV [N1Q]	1.85
KLAGFILGCQGAQFVSSVPRCDLV [N1K]	2.77
RLAGFILGCQGAQFVSSVPRCDLV [N1R]	2.73
CLAGFILGCQGAQFVSSVPRCDLV [N1C]	2.92
ALAGFILGCQGAQFVSSVPRCDLV [N1A]	3.77
NLAGFRLGCQGAQFVSSVPRCDLV [I6R]	1.78
NLAGFELGCQGAQFVSSVPRCDLV [I6E]	1.49
NLAGFDLGCQGAQFVSSVPRCDLV [I6D]	2.68
NLAGFPLGCQGAQFVSSVPRCDLV [I6P]	1.6
NLAGFALGCQGAQFVSSVPRCDLV [I6A]	1.46
NLAGFSLGCQGAQFVSSVPRCDLV [I6S]	1.98
NLAGFCLGCQGAQFVSSVPRCDLV [I6C]	2.3
NLAGFFLGCQGAQFVSSVPRCDLV [I6F]	2.78
NLAGFHLGCQGAQFVSSVPRCDLV [I6H]	1.64
NLAGFWLGCQGAQFVSSVPRCDLV [I6W]	1.76
NLAGFVLGCQGAQFVSSVPRCDLV [I6V]	2.18
NLAGFTLGCQGAQFVSSVPRCDLV [I6T]	1.66
NLAGFGLGCQGAQFVSSVPRCDLV [I6G]	1.79
NLAGFYLGCQGAQFVSSVPRCDLV [I6Y]	2.26
NLAGFQLGCQGAQFVSSVPRCDLV [I6Q]	1.94
NLAGFNLGCQGAQFVSSVPRCDLV [I6N]	2.11
NLAGFKLGCQGAQFVSSVPRCDLV [I6K]	2.29
NLAGFILGCQGAQFVSDVPRCDLV [S17D]	1.72

Variant	protein stability index
NLAGFILGCQGAQFVSEVPRCDLV [S17E]	2.31
NLAGFILGCRGAQFVSSVPRCDLV [Q10R]	2.51
NLAGFILGCHGAQFVSSVPRCDLV [Q10H]	2.76
NLAGFILGCTGAQFVSSVPRCDLV [Q10T]	3.84
NLAGFILGCMGAQFVSSVPRCDLV [Q10M]	3.99
NLAGFILGCLGAQFVSSVPRCDLV [Q10L]	1.53
NLAGFILGCPGAQFVSSVPRCDLV [Q10P]	4.29
NLAGFILGCDGAQFVSSVPRCDLV [Q10D]	3.6
NLAGFILGCCGAQFVSSVPRCDLV [Q10C]	1.49
NLAGFILGCIGAQFVSSVPRCDLV [Q10I]	2.87
NLAGFILGCGGAQFVSSVPRCDLV [Q10G]	2.63
NLAGQILGCQGAQFVSSVPRCDLV [F5Q]	2.27
NLAGSILGCQGAQFVSSVPRCDLV [F5S]	1.87
NLAGGILGCQGAQFVSSVPRCDLV [F5G]	1.5
NLAGMILGCQGAQFVSSVPRCDLV [F5M]	1.7
NLAGHILGCQGAQFVSSVPRCDLV [F5H]	2.71
NLAGIILGCQGAQFVSSVPRCDLV [F5I]	5.13
NLAGTILGCQGAQFVSSVPRCDLV [F5T]	1.86
NLAGEILGCQGAQFVSSVPRCDLV [F5E]	2.18
NLAGNILGCQGAQFVSSVPRCDLV [F5N]	2.19
NLAGDILGCQGAQFVSSVPRCDLV [F5D]	2.16
NLAGPILGCQGAQFVSSVPRCDLV [F5P]	3.25
NLAGFILGCQGAQYVSSVPRCDLV [F14Y]	2.9
NLAGFILGCQGAQVVSSVPRCDLV [F14V]	2.29

Variant	protein stability index
NLAGFILGCQGAQEVSSVPRCDLV [F14E]	1.34
NLAGFILGCQGAQNVSSVPRCDLV [F14N]	1.72
NLAGFILGCQGAQRVSSVPRCDLV [F14R]	1.27
NLAGFILGCQGAQAVSSVPRCDLV [F14A]	1.29
NLAGFILGCQGAQWVSSVPRCDLV [F14W]	2.78
NLAGFILGCQGAQPVSSVPRCDLV [F14P]	2.4
NLAGFILGCQGAQHVSSVPRCDLV [F14H]	1.87
NLAGFILGCQGAQMVSSVPRCDLV [F14M]	2.71
NLAGFILGCQGAQTVSSVPRCDLV [F14T]	1.27
NLAGFILGCQGAQKVSSVPRCDLV [F14K]	1.16
NLAGFILGCQGAQQVSSVPRCDLV [F14Q]	1.92
NLAGFILKCQGAQFVSSVPRCDLV [G8K]	3.72
NLAGFILTCQGAQFVSSVPRCDLV [G8T]	2.17
NLAGFILYCQGAQFVSSVPRCDLV [G8Y]	3.33
NLAGFILICQGAQFVSSVPRCDLV [G8I]	3.23
NLAGFILRCQGAQFVSSVPRCDLV [G8R]	2.34
NLAGFILPCQGAQFVSSVPRCDLV [G8P]	2.03
NLAGFILWCQGAQFVSSVPRCDLV [G8W]	2.45
NLAGFILDCQGAQFVSSVPRCDLV [G8D]	2.19
NLAGFILLCQGAQFVSSVPRCDLV [G8L]	2.81
NLAGFILFCQGAQFVSSVPRCDLV [G8F]	3.47
NLAGFILGCQGAQFESSVPRCDLV [V15E]	1.94
NLAGFILGCQGAQFRSSVPRCDLV [V15R]	1.75
NLAGFILGCQGAQFDSSVPRCDLV [V15D]	1.55

Variant	protein stability index
NLAGFILGCQGAQFCSSVPRCDLV [V15C]	2.72
NLAGFILGCQGAQFYSSVPRCDLV [V15Y]	2.46
NLAGFILGCQGAQFKSSVPRCDLV [V15K]	2.19
NLAGFILGCQGAQFHSSVPRCDLV [V15H]	3.13
NLAGFILGCQGAQFLSSVPRCDLV [V15L]	3.14
NLAGFILGCQGAQFQSSVPRCDLV [V15Q]	3.5
NLAGFILGCQLAQFVSSVPRCDLV [G11L]	3.39
NLAGFILGCQNAQFVSSVPRCDLV [G11N]	3.08
NLAGFILGCQYAQFVSSVPRCDLV [G11Y]	3.45
NLAGFILGCQDAQFVSSVPRCDLV [G11D]	2.76
NLAGFILGCQRAQFVSSVPRCDLV [G11R]	5.06
NLAGFILGCQPAQFVSSVPRCDLV [G11P]	3.59
NLAGFILGCQIAQFVSSVPRCDLV [G11I]	3.71
NLAGFILGCQWAQFVSSVPRCDLV [G11W]	3.48
NLADFILGCQGAQFVSSVPRCDLV [G4D]	2.36
NLAMFILGCQGAQFVSSVPRCDLV [G4M]	4.18
NLAYFILGCQGAQFVSSVPRCDLV [G4Y]	4.24
NLATFILGCQGAQFVSSVPRCDLV [G4T]	3.08
NLANFILGCQGAQFVSSVPRCDLV [G4N]	3.42
NLACFILGCQGAQFVSSVPRCDLV [G4C]	3.26
NLAPFILGCQGAQFVSSVPRCDLV [G4P]	3.65
NLAFFILGCQGAQFVSSVPRCDLV [G4F]	2.45
NLAGFILGEQGAQFVSSVPRCDLV [C9E]	2.54
NLAGFILGFQGAQFVSSVPRCDLV [C9F]	2.36

Variant	protein stability index
NLAGFILGVQGAQFVSSVPRCDLV [C9V]	2.04
NLAGFILGSQGAQFVSSVPRCDLV [C9S]	2.71
NLAGFILGAQGAQFVSSVPRCDLV [C9A]	2.62
NLAGFILGRQGAQFVSSVPRCDLV [C9R]	1.23
NLAGFILGPQGAQFVSSVPRCDLV [C9P]	1.11
NLAGFILGGQGAQFVSSVPRCDLV [C9G]	2.35
NLAGFILGKQGAQFVSSVPRCDLV [C9K]	1.74
NLAGFILGHQGAQFVSSVPRCDLV [C9H]	3.12
NLAGFILGDQGAQFVSSVPRCDLV [C9D]	1.38
NLAGFILGLQGAQFVSSVPRCDLV [C9L]	1.76
NLAGFILGCQGAVFVSSVPRCDLV [Q13V]	2.53
NLAGFILGCQGAPFVSSVPRCDLV [Q13P]	2.31
NLAGFILGCQGACFVSSVPRCDLV [Q13C]	2.76
NLAGFILGCQGAAFVSSVPRCDLV [Q13A]	4.08
NLAGFILGCQGADFVSSVPRCDLV [Q13D]	2.27
NLAGFILGCQGATFVSSVPRCDLV [Q13T]	3.16
NLAGFILGCQGAYFVSSVPRCDLV [Q13Y]	3.26
NLAGFILGCQGAMFVSSVPRCDLV [Q13M]	2.01
NLAGFILGCQGAFFVSSVPRCDLV [Q13F]	3
NLAGFILGCQGANFVSSVPRCDLV [Q13N]	2.93
